Experimental data: the supplement of paper PMC9732359
± gives the uncertainty stated by the source.

Experiment: protein stability index of a GFP-peptide fusion (yeast GPS) (PSI 1-4); higher = more stable; sorted into four equal gates, so the index is relative within each strain
Conditions: pdr5∆
How it was run: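 Plasmids isolated from each sorting gate were PCR-amplified and Illumina-sequenced, and barcodes assigned the reads to strains. The gates, four of equal size, were set by GFP/Cherry fluorescence ratio on mid-log cultures in leucine-free medium. These cultures were yeast carrying a pooled library of tiled 17-residue yeast protein peptides fused downstream of GFP on a plasmid that also expresses Cherry. The protein stability index is the sum of every gate's read frequency times its gate number.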

Row | Sequence | protein stability index
1 | TTIGDTTDKNTTDDKSM [BRN1] | 3.33 ± 0.059
2 | TTIKAIFDGNYGESDIH [YMR129W/POM152] | 2.97 ± 0.14
3 | TTKILGDKILGNLYSKV [YML103C/NUP188] | 2.82 ± 0.08
4 | TTKMWPTNCPLRQFKTC [BRR2] | 2.31 ± 0.095
5 | TTMFENTGWSCSRIIKI [RGR1] | 3.45 ± 0.13
6 | TTNLDIDLLTFQYGSRL [RPP1] | 3.22 ± 0.073
7 | TTTATPHANPITHAHSL [PGD1] | 3.01 ± 0.041
8 | TTTMLQLFSTFDRLNGN [SSN2] | 3.12 ± 0.073
9 | TTVITVFLEFSLNFIPI [YML103C/NUP188] | 1.33 ± 0.032
10 | TTVYRYSAAKKIPDTYT [YAR002W/NUP60] | 2.07 ± 0.094
11 | TVENPLRNWEELNIIPR [PRP28] | 1.9 ± 0.054
12 | TVFFLIRVAETRGGASA [YJL039C/NUP192] | 2.08 ± 0.074
13 | TVFLPMVGLVDPDKLKP [RPT5] | 2.66 ± 0.079
14 | TVHSKSRTRAHAQSKRE [RPL19A] | 3.07 ± 0.079
15 | TVIPEDEEIIQLHFSLL [RPO21] | 2.98 ± 0.067
16 | TVKENESDSKLQCHISG [UBP6] | 3.3 ± 0.11
17 | TVQLTFLIDVLKIYAQI [YCG1] | 1.99 ± 0.05
18 | TVRLVNLFSSTGFKGLL [SRB2] | 2.73 ± 0.055
19 | TVTNSKFRSSILRKSFD [RPN2] | 3.07 ± 0.091
20 | TYEAIEITDAYCFAKND [YMR129W/POM152] | 2.66 ± 0.053
21 | TYPAGFMDVITLDATNE [RPS4A] | 3.11 ± 0.086
22 | VACLFITISIHGKPTKG [SSN8] | 1.24 ± 0.061
23 | VAESFTDEADSSMTEAS [SNF2] | 3.28 ± 0.11
24 | VAGGKKALAIFVPVPSL [RPS7A] | 1.53 ± 0.047
25 | VANVKDLETLTMHTKTY [RPL32] | 3.01 ± 0.11
26 | VASLVLARGHRVEKIPE [RPL4A] | 3.4 ± 0.24

Row | Sequence | protein stability index
27 | VASQTVKKVIEINPFLL [PRE2] | 3.07 ± 0.17
28 | VDDAIELALKTLSKTTD [PRE9] | 1.92 ± 0.063
29 | VDEEDENGTHNDEVNED [YCG1] | 3.32 ± 0.17
30 | VDENGDPIWQHQSLGPD [RET1] | 3.21 ± 0.081
31 | VDIVNQWFLQYQNQFVE [YML103C/NUP188] | 2.1 ± 0.054
32 | VDLIEKFLRYNPLEKRD [RPB10] | 3.27 ± 0.12
33 | VDNSPTTESNSRLKALN [YLR335W/NUP2] | 3.12 ± 0.057
34 | VDNVWADVYAKALEGKD [RPP1B] | 3.1 ± 0.16
35 | VDPEQEAHNKALNQFKR [RPT4] | 3.26 ± 0.13
36 | VDPIQSVKGKVVIDAFR [RPN11] | 2.65 ± 0.092
37 | VDPKRLAMVIIKEFVDD [DSN1] | 3.3 ± 0.1
38 | VDSISLHKIFYKVLKNN [YCG1] | 2.32 ± 0.039
39 | VDSRATAGNWVASQTVK [PRE2] | 3.4 ± 0.079
40 | VDVNNKFIALCEQQPSQ [SIN4] | 2.96 ± 0.05
41 | VEAGMIALRNGQSSVKH [RPT5] | 2.9 ± 0.16
42 | VEASRRRRSSTNKSKRP [MED1] | 3.31 ± 0.056
43 | VEFINKMENFEFLPLSL [SRB8] | 3 ± 0.069
44 | VEIAFLFRAIYLYCLDN [YCG1] | 1.3 ± 0.054
45 | VEIIDQKKVLIDGPKAG [RPL14A] | 2.65 ± 0.09
46 | VELHGKRKLDIGKDTFV [PRP8] | 2.94 ± 0.13
47 | VENDTFIERNFTPQEIE [FAS2] | 2.32 ± 0.062
48 | VENSVLIEKVDDTAANN [YIL149C/MLP2] | 2.82 ± 0.15
49 | VENWIIDDKGVLMERKD [ITC1] | 2.98 ± 0.18
50 | VENYETSSAFFYQQVHK [SIR4] | 2.57 ± 0.042
51 | VERIQKMIEKIEKMSTI [YIL149C/MLP2] | 3.41 ± 0.14
52 | VEVCLADLQGSEDHSFR [RPS1A] | 3.27 ± 0.11

Row | Sequence | protein stability index
53 | VEWNDQVEKLGKKMEAR [RPN9] | 3.28 ± 0.15
54 | VFGISKTSSGSYNYVEN [ITC1] | 3.12 ± 0.073
55 | VFHDPDHSMILPSGVLS [SMC3] | 2.08 ± 0.089
56 | VFSALKNLISRINTLPQ [ECM29] | 2.36 ± 0.091
57 | VFVKKHHELIKVKHDSQ [SSN2] | 1.29 ± 0.053
58 | VFYAELNEFFTRELAEE [RPS3] | 3.24 ± 0.16
59 | VGACTDEEMTISQKLHD [RRP43] | 3.04 ± 0.089
60 | VGFGESNFTSIIGPNGS [SMC1] | 3.34 ± 0.078
61 | VGGCKDQIEKLREVVEL [RPT1] | 3.4 ± 0.063
62 | VGLKNYDPQRDKRFSGS [RPL1A] | 3.48 ± 0.1
63 | VGLVSPSFMLKHHQLFY [RPN1] | 1.7 ± 0.083
64 | VGPSEQNFAEEDDSSNS [REC8] | 2.62 ± 0.11
65 | VGRQDPKKHLSETADET [RPN11] | 2.96 ± 0.09
66 | VGVDQLSIELEGGKNQA [YJL039C/NUP192] | 3.23 ± 0.16
67 | VGVIIFILTIATAFLGY [COB] | 1.84 ± 0.052
68 | VHDKVLEDMVFPTEIVG [RPS7B] | 2.83 ± 0.08
69 | VHDLNKYKSNTNNMEKI [SMC2] | 3.58 ± 0.14
70 | VHELSKRVHTLLTLIVR [ISW2] | 1.44 ± 0.064
71 | VHNTNSFIISSLDTLEL [NUT1] | 2.34 ± 0.067
72 | VHPDYLYGAITEDRYNE [FAS2] | 1.34 ± 0.097
73 | VHPIPDVAFADGGKTLR [YMR129W/POM152] | 2.68 ± 0.086
74 | VIAKLNHNQFECKGCDN [RPB2] | 3.14 ± 0.067
75 | VIEQCYLKFIPLKRAIW [SRB8] | 1.69 ± 0.059
76 | VIGGNSLFHIVVDTEET [SMC3] | 2.78 ± 0.091
77 | VILFDSDWNPQADLQAM [ISW2] | 2.38 ± 0.08
78 | VILKQILQILDQDELVQ [SWP82] | 2.52 ± 0.082

Row | Sequence | protein stability index
79 | VINKLDRLILDLKLPPM [SNU114] | 1.31 ± 0.12
80 | VINPQQLLKGLSLSFSK [DSN1] | 3.1 ± 0.089
81 | VIPIRRGYWGTNLGQPH [RPS2] | 1.67 ± 0.11
82 | VIQIVTGIFMAMHYSSN [COB] | 1.16 ± 0.069
83 | VIRMVVLTAAGVERLIF [PRE3] | 2.99 ± 0.13
84 | VITIKSRIRVKIEGCIS [RPB7] | 2.13 ± 0.056
85 | VIVLSNISHLLEIASSI [SWI1] | 1.67 ± 0.063
86 | VIVPLSTLSNWSSEFAK [SNF2] | 2.35 ± 0.06
87 | VKEQTEAAKKSEKKAKK [RPL34A] | 3.48 ± 0.094
88 | VKGTNISEKDLVPKRCL [RPO31] | 3.39 ± 0.13
89 | VKKLEIQQHARYDCSFC [RPL43A] | 2.87 ± 0.092
90 | VKKVIEINPFLLGTMAG [PRE2] | 1.86 ± 0.18
91 | VKPISIEAPQFYRYWSA [SWI3] | 2.09 ± 0.036
92 | VKQVLLSVEIGVLTDIS [NUT1] | 1.47 ± 0.056
93 | VKWQYDPNNPVDFDGLD [SNF12] | 3.02 ± 0.053
94 | VLCNSNISKSRAKPVTN [RRP6] | 2.67 ± 0.096
95 | VLDVDPKYAKQKDKSDT [ISW2] | 3.01 ± 0.069
96 | VLEERERGQKVKNVKNS [ARP9] | 2.25 ± 0.078
97 | VLEKYEVIGYIAAGTYG [SSN3] | 1.55 ± 0.14
98 | VLEQLSGQTPVQSKARY [RPL11A] | 2.98 ± 0.17
99 | VLKCLKSLESQRYVKSV [RPC34] | 1.94 ± 0.054
100 | VLKKKNIQKKQPAKEKG [RRP6] | 3.03 ± 0.067
101 | VLKYMLLSKIMLNLIDD [RPN6] | 1.49 ± 0.05
102 | VLQYSDWESDLHIHLNQ [YDL116W/NUP84] | 2.61 ± 0.065
